From PMC8701324 (2021)

Molecular target: MRG15 MRG domain, amino acids 155-323 (UniProt Q9UBU8-2 155-323)
Assay: FP

MRG15 MRG domain, amino acids 155-323, sequence (Q9UBU8 194-362): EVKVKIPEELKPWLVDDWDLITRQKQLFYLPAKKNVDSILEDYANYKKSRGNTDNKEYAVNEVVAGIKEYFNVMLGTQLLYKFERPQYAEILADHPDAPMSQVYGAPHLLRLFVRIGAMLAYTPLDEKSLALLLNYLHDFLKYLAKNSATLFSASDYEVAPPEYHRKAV

Binder: MLSLKQLLSFLSITDFQLPDEDFGPLKLEKVKSC [6xHis-PALB2^597-630]
- Ki: 9.8 nM
